The target of assay [1] is TbBILBO1 N-terminal domain (TbBILBO1-NTD), wild type, residues 1-120 (Trypanosoma brucei). Put plainly: ITC. (ITC needs no label: the signal is the heat of the interaction.)
In assay [2] the target is TbBILBO1-NTD Y64A (Trypanosoma brucei). Put plainly: ITC.

For the substance “TbFPC4 C-terminal domain (TbFPC4-CTD), residues 357-404 (domain or fragment)”, the dissociation constant (Kd) in assay [1] stood at 5 µM. The fold reduction of binding affinity against wild type in assay [2] is 2.5 fold.

One may read the Kd as the free concentration of one partner at which half of the binding sites on the other are occupied at equilibrium, for simple one-to-one binding. A lower Kd goes with a tighter complex.
